According to PMC6774351:

Target: Alexa488-labelled NLRP3 (human)
Experiment: MST

NEK7 (wild type; NEK7 monomer) (from UniProt Q8TDX7 1-302) (enzyme)
Kd: 78.9 nM
